From the RNAGym collection of RNA variant scans (doi:10.1093/molbev/msab373)

B1: Azoarcus group I ribozyme (parent)
chain: GUGCCUUGCGCCGGGAAACCACGCAAGGGAUGGUGUCAAAUUCGGCGAAACCUAAGCGCCCGCCCGGGCGUAUGGCAACGCCGAGCCAAGCUUCGGCGCCUGCGCCGAUGAAGGUGUAGAGACUAGACGGCACCCACCUAAGGCAAACGCUAUGGUGAAGGCAUAGUCCAGGGAGUGGCGAAAGUCACACAAACCGG

Variants of: B1
Experiment: reverse-splicing fitness (ratio to wild type); higher = more active; in vitro selection; Mg2+ level not given
Outline: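 An in vitro group I ribozyme library with randomized positions was T7-transcribed and gel-purified. In triplicate, 10 pmol RNA in EPPS pH 7.5 was reacted with 50 pmoles of a 30-nt RNA substrate for 1 h at 37 °C across several added MgCl2 levels (1–48 mM), then stopped with EDTA. Products were reverse transcribed from a substrate-complementary primer, PCR-amplified and sequenced (HiSeq 4000). Fitness is a variant's read proportion after selection over that before, normalised to wild type.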

Variant	reverse-splicing fitness
A111C A120U A145U C150A C169G U176A	0.00295
A111C A120U A145U C150A C169G U176C	0.00388
A111C A120U A145U C150A C169G U176G	0.00199
A111C A120U A145U C150A C169U	0.00653
A111C A120U A145U C150A C169U U176A	0.00386
A111C A120U A145U C150A C169U U176C	0.0049
A111C A120U A145U C150A C169U U176G	0.00271
A111C A120U A145U C150A U176A	0.0343
A111C A120U A145U C150A U176C	0.0354
A111C A120U A145U C150A U176G	0.0123
A111C A120U A145U C150G	0.0737
A111C A120U A145U C150G C169A	0.00366
A111C A120U A145U C150G C169A U176A	0.00343
A111C A120U A145U C150G C169A U176C	0.0035
A111C A120U A145U C150G C169A U176G	0.00296
A111C A120U A145U C150G C169G	0.00663
A111C A120U A145U C150G C169G U176A	0.00267
A111C A120U A145U C150G C169G U176C	0.00291
A111C A120U A145U C150G C169G U176G	0.00233
A111C A120U A145U C150G C169U	0.00794
A111C A120U A145U C150G C169U U176A	0.00284
A111C A120U A145U C150G C169U U176C	0.00398
A111C A120U A145U C150G C169U U176G	0.00279
A111C A120U A145U C150G U176A	0.0214

Variant	reverse-splicing fitness
A111C A120U A145U C150G U176C	0.0313
A111C A120U A145U C150G U176G	0.00462
A111C A120U A145U C150U	0.491
A111C A120U A145U C150U C169A	0.00426
A111C A120U A145U C150U C169A U176A	0.00293
A111C A120U A145U C150U C169A U176C	0.00252
A111C A120U A145U C150U C169A U176G	0.00217
A111C A120U A145U C150U C169G	0.0348
A111C A120U A145U C150U C169G U176A	0.00509
A111C A120U A145U C150U C169G U176C	0.00885
A111C A120U A145U C150U C169G U176G	0.00261
A111C A120U A145U C150U C169U	0.0452
A111C A120U A145U C150U C169U U176A	0.00859
A111C A120U A145U C150U C169U U176C	0.0142
A111C A120U A145U C150U C169U U176G	0.00224
A111C A120U A145U C150U U176A	0.182
A111C A120U A145U C150U U176C	0.215
A111C A120U A145U C150U U176G	0.0348
A111C A120U A145U C169A	0.00546
A111C A120U A145U C169A U176A	0.00268
A111C A120U A145U C169A U176C	0.00217
A111C A120U A145U C169A U176G	0.00217
A111C A120U A145U C169G	0.0574
A111C A120U A145U C169G U176A	0.00434

Variant	reverse-splicing fitness
A111C A120U A145U C169G U176C	0.00935
A111C A120U A145U C169G U176G	0.00209
A111C A120U A145U C169U	0.0751
A111C A120U A145U C169U U176A	0.0121
A111C A120U A145U C169U U176C	0.0216
A111C A120U A145U C169U U176G	0.00286
A111C A120U A145U U176A	0.221
A111C A120U A145U U176C	0.271
A111C A120U A145U U176G	0.0748
A111C A120U C150A	0.0711
A111C A120U C150A C169A	0.00557
A111C A120U C150A C169A U176A	0.00602
A111C A120U C150A C169A U176C	0.00383
A111C A120U C150A C169A U176G	0.00239
A111C A120U C150A C169G	0.00691
A111C A120U C150A C169G U176A	0.00448
A111C A120U C150A C169G U176C	0.00434
A111C A120U C150A C169G U176G	0.00245
A111C A120U C150A C169U	0.00953
A111C A120U C150A C169U U176A	0.00902
A111C A120U C150A C169U U176C	0.0062
A111C A120U C150A C169U U176G	0.00274
A111C A120U C150A U176A	0.0268
A111C A120U C150A U176C	0.0376

Variant	reverse-splicing fitness
A111C A120U C150A U176G	0.0153
A111C A120U C150G	0.0546
A111C A120U C150G C169A	0.00675
A111C A120U C150G C169A U176A	0.00683
A111C A120U C150G C169A U176C	0.00504
A111C A120U C150G C169A U176G	0.00363
A111C A120U C150G C169G	0.00853
A111C A120U C150G C169G U176A	0.00481
A111C A120U C150G C169G U176C	0.0039
A111C A120U C150G C169G U176G	0.00234
A111C A120U C150G C169U	0.00955
A111C A120U C150G C169U U176A	0.00446
A111C A120U C150G C169U U176C	0.00564
A111C A120U C150G C169U U176G	0.00276
A111C A120U C150G U176A	0.0127
A111C A120U C150G U176C	0.0217
A111C A120U C150G U176G	0.00356
A111C A120U C150U	0.416
A111C A120U C150U C169A	0.00639
A111C A120U C150U C169A U176A	0.00394
A111C A120U C150U C169A U176C	0.00309
A111C A120U C150U C169A U176G	0.00204
A111C A120U C150U C169G	0.0296
A111C A120U C150U C169G U176A	0.00676

Variant	reverse-splicing fitness
A111C A120U C150U C169G U176C	0.00812
A111C A120U C150U C169G U176G	0.00251
A111C A120U C150U C169U	0.0424
A111C A120U C150U C169U U176A	0.0122
A111C A120U C150U C169U U176C	0.0116
A111C A120U C150U C169U U176G	0.00319
A111C A120U C150U U176A	0.145
A111C A120U C150U U176C	0.194
A111C A120U C150U U176G	0.0367
A111C A120U C169A	0.00479
A111C A120U C169A U176A	0.00319
A111C A120U C169A U176C	0.00293
A111C A120U C169A U176G	0.00232
A111C A120U C169G	0.0632
A111C A120U C169G U176A	0.00529
A111C A120U C169G U176C	0.00999
A111C A120U C169G U176G	0.00154
A111C A120U C169U	0.0792
A111C A120U C169U U176A	0.0143
A111C A120U C169U U176C	0.0214
A111C A120U C169U U176G	0.00263
A111C A120U U176A	0.22
A111C A120U U176C	0.257
A111C A120U U176G	0.0937

Variant	reverse-splicing fitness
A111C A145C	0.768
A111C A145C C150A	0.15
A111C A145C C150A C169A	0.00829
A111C A145C C150A C169A U176A	0.0117
A111C A145C C150A C169A U176C	0.00898
A111C A145C C150A C169A U176G	0.00714
A111C A145C C150A C169G	0.00874
A111C A145C C150A C169G U176A	0.0274
A111C A145C C150A C169G U176C	0.0189
A111C A145C C150A C169G U176G	0.00627
A111C A145C C150A C169U	0.0128
A111C A145C C150A C169U U176A	0.0151
A111C A145C C150A C169U U176C	0.0102
A111C A145C C150A C169U U176G	0.00658
A111C A145C C150A U176A	0.0687
A111C A145C C150A U176C	0.104
A111C A145C C150A U176G	0.0323
A111C A145C C150G	0.246
A111C A145C C150G C169A	0.00983
A111C A145C C150G C169A U176A	0.00774
A111C A145C C150G C169A U176C	0.00833
A111C A145C C150G C169A U176G	0.00574
A111C A145C C150G C169G	0.0102
A111C A145C C150G C169G U176A	0.00768

Variant	reverse-splicing fitness
A111C A145C C150G C169G U176C	0.00915
A111C A145C C150G C169G U176G	0.0057
A111C A145C C150G C169U	0.018
A111C A145C C150G C169U U176A	0.00817
A111C A145C C150G C169U U176C	0.0119
A111C A145C C150G C169U U176G	0.00607
A111C A145C C150G U176A	0.0871
A111C A145C C150G U176C	0.13
A111C A145C C150G U176G	0.0182
A111C A145C C150U	0.554
A111C A145C C150U C169A	0.0114
A111C A145C C150U C169A U176A	0.0139
A111C A145C C150U C169A U176C	0.00847
A111C A145C C150U C169A U176G	0.00708
A111C A145C C150U C169G	0.0204
A111C A145C C150U C169G U176A	0.0249
A111C A145C C150U C169G U176C	0.0197
A111C A145C C150U C169G U176G	0.00689
A111C A145C C150U C169U	0.032
A111C A145C C150U C169U U176A	0.0174
A111C A145C C150U C169U U176C	0.0139
A111C A145C C150U C169U U176G	0.00818
A111C A145C C150U U176A	0.219
